# In article PMC3228830, “Targeted Proteolysis of Plectin Isoform 1a Accounts for Hemidesmosome Dysfunction in Mice Mimicking the Dominant Skin Blistering Disease EBS-Ogna” (PLoS Genetics, 2011):
# B1: His-tagged wild-type plectin rod domain (pNV10) (domain or fragment)
# chain: IKFISETLRRMEEEERLAEQQRAEERERLAEVEAALEKQRQLAEAHAQAKAQAELEAQELQRRMQEEVARREEAAVDAQQQKRSIQEELQHLRQSSEAEIQAKAQQVEAAERSRMRIEEEIRVVRLQLETTERQRGGAEGELQALRARAEEAEAQKRQAQEEAERLRRQVQDESQRKRQAEAELALRVKAEAEAAREKQRALQALDELRLQAEEAERRLRQAEAERARQVQVALETAQRSAEVELQSKRASFAEKTAQLERTLQEEHVTVAQLREEAERRAQQQAEAERAREEAERELERWQLKANEALRLRLQAEEVAQQKSLAQADAEKQKEEAEREARRRGKAEEQAVRQRELAEQELEKQRQLAEGTAQQRLAAEQELIRLRAETEQGEQQRQLLEEELARLQHEATAATQKRQELEAELAKVRAEMEVLLASKARAEEESRSTSEKSKQRLEAEAGRFRELAEEAARLRALAEEAKRQRQLAEEDAARQRAEAERVLTEKLAAISEATRLKTEAEIALKEKEAENERLRRLAEDEAFQRRRLEEQAALHKADIEERLAQLRKASESELERQKGLVEDTLRQRRQVEEEIMALKVSFEKAAAGKAELELELGRIRSNAEDTMRSKEQAELEAARQRQLAAEEEQRRREAEERVQRSLAAEEEAARQRKVALEEVERLKAKVEEARRLRERAEQESARQLQLAQEAAQKRLQAEEKAHAFVVQQREEELQQTLQQEQNMLDRLRSEAEAARRAAEEAEEAREQAEREAAQSRKQVEEAERLKQSAEEQAQAQAQAQAAAEKLRKEAEQEAARRAQAEQAALKQKQAADAEMEKHKKFAEQTLRQKAQVEQELTTLRLQLEETDHQKSILDEELQRLKAEVTEAARQRSQVEEELFSVRVQMEELGKLKARIEAENRALILRDKDNTQRFLEEEAEKMKQVAEEAARLSVAAQEAARLRQLAEEDLAQQRALAEKMLKEKMQAVQEATRLKAEAELLQQQKELAQEQARRLQEDKEQMAQQLVEETQGFQRTLEAERQRQLEMSAEAERLKLRMAEMSRAQARAEEDAQRFRKQAEEIGEKLHRTELATQEKVTLVQTLEIQRQQSDHDAERLREAIAELEREKEKLKQEAKLLQLKSEEMQTVQQEQILQETQALQKSFLSEKDSLLQRERFIEQEKAKLEQLFQDEVAKAKQLREEQQRQQQQMEQEKQELMASMEEARRRQREAEEGVRRKQEELQHLEQQRQQQEKLLAEENQRLRERLQRLEEEHRAALAHSEIATT
# Target: the molecule itself
# Experiment: SEC-MALS; Superose 6 10/300 GL column, 0.5 ml/min, protein 2 mg/ml, load 75 ul
protein,measurement,value
B1,stoichiometry N,2
